experiment: soluble on expression in E. coli; label from the status in PepcDB or PDB records

Sequence	soluble on expression in E. coli
MGSPAHRPALLLLLPPLLLLLLLRVPPSRSFPGSGDSPLEDDEVGYSHPRYKDTPWCSPIKVKYGDVYCRAPQGGYYKTALGTRCDIRCQKGYELHGSSLLICQSNKRWSDKVICKQKRCPTLAMPANGGFKCVDGAYFNSRCEYYCSPGYTLKGERTVTCMDNKAWSGRPASCVDMEPPRIKCPSVKERIAEPNKLTVRVSWETPEGRDTADGILTDVILKGLPPGSNFPEGDHKIQYTVYDRAENKGTCKFRVKVRVKRCGKLNAPENGYMKCSSDGDNYGATCEFSCIGGYELQGSPARVCQSNLAWSGTEPTCAAMNVNVGVRTAAALLDQFYEKRRLLIVSTPTARNLLYRLQLGMLQQAQCGLDLRHITVVELVGVFPTLIGRIGAKIMPPALALQLRLLLRIPLYSFSMVLVDKHGMDKERYVSLVMPVALFNLIDTFPLRKEEMVLQAEMSQTCNT	soluble
MGSSHHHHHHGGTGENLYFQGGSGASTANASVDGSCPAMRDAADEALWAKLDEVQKLLANRSDAKELFTKYTVLRSVVGEVKPVFADSVRTRVKVFCEEPSFAAPEECDDFEPVSLHVVAYLNYKLFMEEMKELMVQARLLKSIGMEGSGLRFQRREQNIVAPGNEPRTGSSSKPSAQVSMHKPSYRPATLIPVGTLRLRRVSKASGAGKLTEVVAKIERVCVVKSARCFDVGRTLMRAAEKIARDAFHVRWALTYAQLSSKDFYTKAGYTPKDGRACMDLHMPHVVMVKCLVDASM	not soluble
MGSSHHHHHHGGTGENLYFQGGSGLLSHHCIYPSRMFGDGRLLMDTSISGGMLLGLDVCGGVKLWPQHQYTAVELILPSALSGVREVLVPPVSMSGAGEESQRASEAGSGKQRASSPPLPRNLPGSRVIRIIHEASEIPAEVAGSYNSALNGSRRKGSKAMRSLDRGPAGTSGGRASSSIVPRYFDEFHRLRSQRVMEGSLKTVLEATNASIIGEARLRRQRRRYAVKHNKTIFIKGKTAAGDEQ	not soluble
MGSSHHHHHHGGTGENLYFQGGSGMEKAIRDRVEKWKKEHTIDGKDATNEHAYESLNELILDGKKLTSIKNEEKELLKNFKNLERLCLNQTGIQTLENIPSIATLNVLELTDNHLSSVEVLKYIVQNFPNIKTLEIGGNHFKNINDFETLKELKNLVRLGVQFNPFADNPNYRKELFEFLPNVKIIDCYNKEGMEVLSSDEEEEEEYEEDNTLKNFYEADFKDEDDEDEEFVPNDNEDDDEDDELDDDLEDEDMEDLDKEDLDKEDYDIDTKETEGVNKDEKSNKRKQDALDNTNDMDLKKTKLE	soluble
MGSSHHHHHHGKTIFVIVPTNEEQVAFLEALAKQDELNFDWQNPPTEPGQPVVILIPSDMVEWFLEMLKAKGIPFTVYVEEGGSENLYFQGGGGGGAKDCITRGPNSMIAWKYEDGSFQCDNCIGAHAVGVSSGTVRRRWTEYDKDRNILNSFVEEHREGKKLVLHDESRGMSILLRSDLSGIRTEGEQTFRQLYSGAFISVVDCT	soluble
MGSSHHHHHHGKTIFVIVPTNEEQVAFLEALAKQDELNFDWQNPPTEPGQPVVILIPSDMVEWFLEMLKAKGIPFTVYVEEGGSENLYFQGGGGGGRPIVANRARHPALIVDIPFAALAWQCVQFLAVVVAHSLMRQMMLASVIRFTAVFLGIRRCRGAFVVAPLFVLQPLLQHLQQLITHPLTCLQGGIQWQLHALVEHLVHLQHLPSPRVQLSHVTKKRRAPVRKVVCGRIIHVHRTLLLLKQLRLLGVPGTQRAESSEHGGEPLTAVLVQLDKSIASRSGDNGDGGGRCR	not soluble
MGSSHHHHHHSAGENLYFQGQQGDLMPQSALFTGIIPPVSTIFTADGQLDKPGTAALIDDLIKAGVDGLFFLGSGGEFSQLGAEERKAIARFAIDHVDRRVPVLIGTGGTNARETIELSQHAQQAGADGIVVINPYYWKVSEANLIRYFEQVADSVTLPVMLYNFPALTGQDLTPALVKTLADSRSNIIGIKDTIDSVAHLRSMIHTVKGAHPHFTVLCGYDDHLFNTLLLGGDGAISASGNFAPQVSVNLLKAWRDGDVAKAAGYHQTLLQIPQMYQLDTPFVNVIKEAIVLCGRPVSTHVLPPASPLDEPRKAQLKTLLQQLKLCCGRTRAPPPPPLRSGC	soluble
MGSSHHHHHHSSGLVPRGSGDPDEQYDFLFKLVLVGDASVGKTCVVQRFKTGAFSERQGSTIGVDFTMKTLEIQGKRVKLQIWDTAGQERFRTITQSYYRSANGAILAYDITKRSSFLSVPHWIEDVRKYAGSNIVQLLIGNKSDLSELREVSLAEAQSLAEHYDILCAIETSAKDSSNVEEAFLRVATELIMRHGGPLFS	soluble
MGSSHHHHHHSSGLVPRGSHMAKAPEQTVTEPVGSYARAERPQDFEGFVWRLDNDGKEALPRNFRTSADALRAPEKKFHLDAAYVPSREGMDALHISGSSAFTPAQLKNVAAKLREKTAGPIYDVDLRQESHGYLDGIPVSWYGERDWANLGKSQHEALADERHRLHAALHKTVYIAPLGKHKLPEGGEVRRVQKVQTEQEVAEAAGMRYFRIAATDHVWPTPENIDRFLAFYRTLPQDAWLHFHCEAGVGRTTAFMVMTDMLKNPSVSLKDILYRQHEIGGFYYGEFPIKTKDKDSWKTKYYREKIVMIEQFYRYVQENRADGYQTPWSVWLKSHPAKA	soluble
MGSSHHHHHHSSGLVPRGSHMASGLVPRGSHMASMPEASFFTDMLQSITDHGRQLLFSGSRNTQAAAKADLETLCEMLLSSRGEASGMALAAEILDRWGALDSEGAQKFFHMLQQKFGPDTARLDQAIEDYRTDKSSTAVIALHQAAEPRRQELLRRLNHAPNGTATLVRMRQQLLASKDRSEAYHALDADFTHLFGSWFNRGFLTLRPIDWTTPAYILEKIIQYEAVHEIAGWEELRRRLAPADRRCFAFFHPRLADEPLVFVEVALTRSVPKAIADVLDEGREQINADEATTAVFYSISNCQDGLRGISFGNFLIKQVVEDLRKDLPGLKNFVTLSPVPGFARWLAKMRTATGDRSLSEAALKTLSLLDDPNWPGSESSAADVERVLLPLAARYFLTERTPEGRPVDPVARFHLGNGARLERVNFLGDRSPKALQQAHGLMVNYLYKLDDIVANHEALAQRGEVIASPAVKSLLNQNDEGRRSGNGQQGSRAFAQLMNSTLGGGRK	soluble
MGSSHHHHHHSSGLVPRGSHMATADPYDALRRRWLGITLGTGYDPAAEPYASRLAETGERAREHRATMAPTPTSLWPGHPFDPPAGITFAYGRLWTMTEAYVQEGTGATGDPALLADILRGLDHLSATVYHPATTRYGNWWEWQIGSPRLLMDITAALYDHLGADRVAAACAAVDHFVPDAMLGAYTGTSTGANRVDLCRSVALRGVLGRAPAKIALARDALSPVFPYVTKGDGLYADGSFVQHTWVAYSGTYGQVMLDGLGRLFTLLAGSEWEVTDPGRQLVLDSVEHAYAPLIHDGLVMDTVNGRAISRGYLKSDDLHVMRSDHFHGQQLIAAMAVLAGGASNAERERWHARIKGWIERDTVTPVLTAPQFPVADLTRLHAIADAPGEAAPEPVGHHLFAAMDRAVHRRPAFTAGLAMASDRIAHYECGNGENPRGWHTGAGMLTWWANGTRADQYTDWFWPTVDWYRLPGTTVSTKRLADRAGGEWGAPKPDVRWVGGATDGEYAAVGQHLKGLGSTLEARKSWFFLDDAVVCLGAGITCADGVPVETVVDNRNLGEGGTQALVRGRHWAHLEGHGGWIVPGGALRTLREDRTGAWSDINTTSTTERRTRRWQTLWLDHGTDPAGADYVYTVMPGASRAALARRAADRHWLTVLANDDRRQAVSVPSLGLTAANFWQAGTAGPLTTTAGASVLVRRRGRTATLRVSEPPRTGEALEIVWDHPVGAVLRADETVEILATGRRLHLRVTPGVVCTTHECEVTLS	soluble
MGSSHHHHHHSSGLVPRGSHMGGGRSTETSSSSGGDGGATKKKVVVGTDAAFAPFEYMQKGKIVGFDVDLLDAVMKAAGLDYELKNIGWDPLFASLQSKEVDMGISGITITDERKQSYDFSDPYFEATQVILVKQGSPVKNALDLKGKTIGVQNATTGQEAAEKLFGKGPHIKKFETTVVAIMELLNGGVDAVITDNAVANEYVKNNPNKKLQVIEDPKNFASEYYGMIFPKNSELKAKVDEALKNVINSGKYTEIYKKWFGKEPKLDRLKQ	soluble
MGSSHHHHHHSSGLVPRGSHMRGVIRKLNDDGFGVLKGILVPFSAPGDEIIVERVERVKKRRVASQWKLVRSSPLRVGPRCKAFGKCGGCTLQHLNYDYQLEFKRKKLKRILGFEVEVVPSPKIFGHRNRIDLAITKDGIGFRERGKWWKIVDIDECPVFGKTSREAIERLKEFIEEEKISVWNIKKDEGFLRYMVLREGKFTEEVMVNFVTKEGNLPDPTNYFDFDSIYWSVNRSKSDVSYGDIERFWGKEFIRERLDDVDYLIHPNSFFQTNSYQAVNLVRKVSELVEGEKILDMYSGVGTFGIYLAKRGFNVKGFDSNEFAIEMARRNVEINNVDAEFEVASDREVSVKGFDTVIVDPPRAGLHPRLVKRLNREKPGVIVYVSCNPETFARDVKMLDYRIDEIVALDMFPHTPHVELVAKLV	soluble
MGSSHHHHHHSSGLVPRGSHMRLAGILLHVTSLPSPYGIGDLGKEAYRFLDFLKECGFSLWQVLPLNPTSLEAGNSPYSSNSLFAGNYVLIDPEELLEEDLIKERDLKRFPLGEALYEVVYEYKKELLEKAFKNFRRFELLEDFLKEHSYWLRDYALYMAIKEEEGKEWYEWDEELKRREKEALKRVLNKLKGRFYFHVFVQFVFFKQWEKLRRYARERGISIVGDLPMYPSYSSADVWTNPELFKLDGDLKPLFVAGVPPDFFSKTGQLWGNPVYNWEEHEKEGFRWWIRRVLHNLKLFDFLRLDHFRGFEAYWEVPYGEETAVNGRWVKAPGKTLFKKLLSYFPKNPFIAEDLGFITDEVRYLRETFKIPGSRVIEFAFYDKESEHLPHNVEENNVYYTSTHDLPPIRGWFENLGEESRKRLFEYLGREIKEEKVNEELIRLVLISRAKFAIIQMQDLLNLGNEARMNYPGRPFGNWRWRIKEDYTQKKEFIKKLLGIYGREV	soluble
MGSSHHHHHHSSGLVPRGSHMRVAMISMHTSPLQQPGTGDSGGMNVYILSTATELAKQGIEVDIYTRATRPSQGEIVRVAENLRVINIAAGPYEGLSKEELPTQLAAFTGGMLSFTRREKVTYDLIHSHYWLSGQVGWLLRDLWRIPLIHTAHTLAAVKNSYRDDSDTPESEARRICEQQLVDNADVLAVNTQEEMQDLMHHYDADPDRISVVSPGADVELYSPGNDRATERSRRELGIPLHTKVVAFVGRLQPFKGPQVLIKAVAALFDRDPDRNLRVIICGGPSGPNATPDTYRHMAEELGVEKRIRFLDPRPPSELVAVYRAADIVAVPSFNESFGLVAMEAQASGTPVIAARVGGLPIAVAEGETGLLVDGHSPHAWADALATLLDDDETRIRMGEDAVEHARTFSWAATAAQLSSLYNDAIANENVDGETHHG	soluble
MGSSHHHHHHSSGLVPRGSHMSKFSYLQNGKASTNGVPHANGHHQQHQNGHSNGVARNGGTATDTLPVAYQQKAATSGPFHMPRTEHVGYTYDTLQEIATYLLERTELRPKVGIICGSGLGTLAEQLTDVDSFDYETIPHFPVSTVAGHVGRLVFGYLAGVPVMCMQGRFHHYEGYPLAKCAMPVRVMHLIGCTHLIATNAAGGANPKYRVGDIMLIKDHINLMGFAGNNPLQGPNDERFGPRFFGMANTYDPKLNQQAKVIARQIGIENELREGVYTCLGGPNFETVAEVKMLSMLGVDAIGMSTVHEIITARHCGMTCFAFSLITNMCTMSYEEEEEHCHDSIVGVGKNREKTLGEFVSRIVKHIHYEAKK	soluble
MGSSHHHHHHSSGLVPRGSHMSLNILGYDVGGTKISTVVGNDSGEILSNVRMPTVKHLGKKRLIEEMITMGDAALKKAHVEKPDLIGIIFAGPVDRNRGVVIASPNIFGLSNFNIVEPIRDYYRTDTFLENDAQAAAIAERLFGSGRNVDNFVYMTLSTGIGGGIFINGKLYRGAHGMAGEIGHNVIMVNGPTCGCGRRGCLEALAGGKAIARRVIENLRAVRDSDFFSKLRPNEITAEKVFEGKKQGDMFSQLILEETIYYLAVGLVNIINTLDPELVIIGGGISKAGKDLFDPLNDAVKEEFKSMYRPFKIVPGLENGSDLAAISVPLYTEMELHGEGEKQY	soluble
